# Results published in patent US7820412.
# Test system: MutS (MBP-MutS-H6 fusion) (Thermus aquaticus)
# Assay: pulldown
# Conditions: MutS selectivity factor M estimated by model from consensus shuffling error rates; 20 mM Tris-HCl pH 7.8, 10 mM NaCl, 5 mM MgCl2, 1 mM DTT, 5% glycerol, room …
substance,measurement,value
re-hybridized GFPuv fragments (average 150 bp) containing synthesis-error mismatches,binding signal (fold selectivity),2.2
